In patent publication US20240398963A1 (priority 2021, published 2024):

Format: physicochemical
Conditions: 10 mM PBS buffer (pH=7.4), 37° C., 100 rpm shaker; free drug by HPLC, average release per day
Protocol: The drug release and stability experiments were run using the test compounds. About 2.5±1.0 mg/mL (with regard to conjugate) solution of each test compound was prepared with 10 mM PBS buffer (pH=7.4) in Millipore Amicon® Ultra-0.5 ml 30 k Ultrafiltration centrifuge tube. The solution was kept swelling for 1 h at room temperature and then placed in a shaker at 100 rpm, 37° C. for continuous experiment. At the same time point of each day, samples were centrifuged at 10000 rpm for 1 h. The aliquot was transferred to HPLC vial for analysis. An 0.4 mL of 10 mM PBS buffer was added into the centrifuge tube and continue the experiment.
For the HPLC analysis at each time point, the peak areas of all relevant peaks from the chromatograms were retrieved and the concentration of free drug was calculated. Average release of free drug was calculated based on the sum of free drug and numbers of experiment days. The computing equation is as below.
The sample degradation rate was calculated based on the concentration and degree of substitution (NMR) for conjugated drug with regard to the initial starting point of the experiment (at t=0). The computing equation is as below.

| Substance | Release rate [%/day] |
| --- | --- |
| Conjugate of CS and 2-((8S,9S,10R,11S,13S,14S,17R)-11,17-dihydroxy-10,13-dimethyl-3-oxo-2,3,6,7,8,9,10,11,12,13,14,15,16,17-tetradecahydro-1H-cyclopenta[a]phenanthren-17-yl)-2-oxoethyl 4-aminobutanoate [Example 39] | 0.71 |
| Conjugate of CS and 2-((8S,9S,10R,13S,14S,17R)-17-hydroxy-10,13-dimethyl-3,11-dioxo-2,3,6,7,8,9,10,11,12,13,14,15,16,17-tetradecahydro-1H-cyclopenta[a]phenanthren-17-yl)-2-oxoethyl 4-aminobutanoate [Example 41] | 1.79 |
| Conjugate of CS and 2-((8S,9S,10R,13S,14S,17R)-17-hydroxy-10,13-dimethyl-3,11-dioxo-6,7,8,9,10,11,12,13,14,15,16,17-dodecahydro-3H-cyclopenta[a]phenanthren-17-yl)-2-oxoethyl 4-aminobutanoate [Example 35] | 1.44 |
| Conjugate of CS and 4-aminobutyl (2-((6S,8S,9S,10R,11S,13S,14S,17R)-11,17-dihydroxy-6,10,13-trimethyl-3-oxo-6,7,8,9,10,11,12,13,14,15,16,17-dodecahydro-3H-cyclopenta[a]phenanthren-17-yl)-2-oxoethyl) carbonate [Example 69] | 4.62 |
| Conjugate of CS and 4-aminobutyl (2-((8S,9R,10S,11S,13S,14S,16R,17R)-9-fluoro-11,17-dihydroxy-10,13,16-trimethyl-3-oxo-6,7,8,9,10,11,12,13,14,15,16,17-dodecahydro-3H-cyclopenta[a]phenanthren-17-yl)-2-oxoethyl) carbonate [Example 71] | 1.55 |
| Conjugate of CS and 4-aminobutyl (2-((8S,9R,10S,11S,13S,14S,16S,17R)-9-fluoro-11,17-dihydroxy-10,13,16-trimethyl-3-oxo-6,7,8,9,10,11,12,13,14,15,16,17-dodecahydro-3H-cyclopenta[a]phenanthren-17-yl)-2-oxoethyl) carbonate [Example 73] | 13.44 |
| Conjugate of CS and 4-aminobutyl (2-((8S,9S,10R,11S,13S,14S,17R)-11,17-dihydroxy-10,13-dimethyl-3-oxo-2,3,6,7,8,9,10,11,12,13,14,15,16,17-tetradecahydro-1H-cyclopenta[a]phenanthren-17-yl)-2-oxoethyl) carbonate [Example 65] | 7.52 |
| Conjugate of CS and 4-aminobutyl (2-((8S,9S,10R,11S,13S,14S,17R)-11,17-dihydroxy-10,13-dimethyl-3-oxo-6,7,8,9,10,11,12,13,14,15,16,17-dodecahydro-3H-cyclopenta[a]phenanthren-17-yl)-2-oxoethyl) carbonate [Example 63] | 0.05 |
| Conjugate of CS and 4-aminobutyl (2-((8S,9S,10R,13S,14S,17R)-17-hydroxy-10,13-dimethyl-3,11-dioxo-2,3,6,7,8,9,10,11,12,13,14,15,16,17-tetradecahydro-1H-cyclopenta[a]phenanthren-17-yl)-2-oxoethyl) carbonate [Example 67] | 5.91 |
| Conjugate of CS and 4-aminobutyl (2-((8S,9S,10R,13S,14S,17R)-17-hydroxy-10,13-dimethyl-3,11-dioxo-6,7,8,9,10,11,12,13,14,15,16,17-dodecahydro-3H-cyclopenta[a]phenanthren-17-yl)-2-oxoethyl) carbonate [Example 61] | 7.26 |
| Conjugate of HA and 2-((2S,6αS,6βR,7S,8αS,8βS,11αR,12αS,12βS)-2,6β-difluoro-7-hydroxy-6α,8α,10,10-tetramethyl-4-oxo-1,2,4,6α,6β,7,8,8α,11α,12,12α,12β-dodecahydro-8βH-naphtho[2′,1′:4,5]indeno[1,2-d][1,3]dioxol-8β-yl)-2-oxoethyl 6-aminohexanoate [Example 23] | 1.01 |
| Conjugate of HA and 2-((6S,8S,9S,10R,11S,13S,14S,17R)-11,17-dihydroxy-6,10,13-trimethyl-3-oxo-6,7,8,9,10,11,12,13,14,15,16,17-dodecahydro-3H-cyclopenta[a]phenanthren-17-yl)-2-oxoethyl 4-aminobutanoate [Example 42] | 2.88 |
| Conjugate of HA and 2-((6S,8S,9S,10R,11S,13S,14S,17R)-11,17-dihydroxy-6,10,13-trimethyl-3-oxo-6,7,8,9,10,11,12,13,14,15,16,17-dodecahydro-3H-cyclopenta[a]phenanthren-17-yl)-2-oxoethyl 5-aminopentanoate [Example 78] | 8.92 |
| Conjugate of HA and 2-((6S,8S,9S,10R,11S,13S,14S,17R)-11,17-dihydroxy-6,10,13-trimethyl-3-oxo-6,7,8,9,10,11,12,13,14,15,16,17-dodecahydro-3H-cyclopenta[a]phenanthren-17-yl)-2-oxoethyl 6-aminohexanoate [Example 82] | 2.30 |
| Conjugate of HA and 2-((6αS,6βR,7S,8αS,8βS,11αR,12αS,12βS)-6β-fluoro-7-hydroxy-6α,8α,10,10-tetramethyl-4-oxo-1,2,4,6α,6β,7,8,8α,11α,12,12α,12β-dodecahydro-8βH-naphtho[2′,1′:4,5]indeno[1,2-d][1,3]dioxol-8β-yl)-2-oxoethyl 2,5-diazabicyclo[2.2.1]heptane-2-carboxylate [Example 58] | 0.25 |
| Conjugate of HA and 2-((6αS,6βR,7S,8αS,8βS,11αR,12αS,12βS)-6β-fluoro-7-hydroxy-6α,8α,10,10-tetramethyl-4-oxo-1,2,4,6α,6β,7,8,8α,11α,12,12α,12β-dodecahydro-8βH-naphtho[2′,1′:4,5]indeno[1,2-d][1,3]dioxol-8β-yl)-2-oxoethyl glycylglycylglycinate [Example 19] | 17.57 |
| Conjugate of HA and 2-((8S,9R,10S,11S,13S,14S,16R,17R)-9-fluoro-11,17-dihydroxy-10,13,16-trimethyl-3-oxo-6,7,8,9,10,11,12,13,14,15,16,17-dodecahydro-3H-cyclopenta[a]phenanthren-17-yl)-2-oxoethyl 4-aminobutanoate [Example 44] | 1.12 |
| Conjugate of HA and 2-((8S,9R,10S,11S,13S,14S,16R,17R)-9-fluoro-11,17-dihydroxy-10,13,16-trimethyl-3-oxo-6,7,8,9,10,11,12,13,14,15,16,17-dodecahydro-3H-cyclopenta[a]phenanthren-17-yl)-2-oxoethyl 5-aminopentanoate [Example 79] | 4.42 |
| Conjugate of HA and 2-((8S,9R,10S,11S,13S,14S,16R,17R)-9-fluoro-11,17-dihydroxy-10,13,16-trimethyl-3-oxo-6,7,8,9,10,11,12,13,14,15,16,17-dodecahydro-3H-cyclopenta[a]phenanthren-17-yl)-2-oxoethyl 6-aminohexanoate [Example 83] | 2.15 |
